The target of test [1] is ribosome nascent chain complex bearing the 3A7L signal sequence, nascent chain of 85 residues, Cm-labeled (UniProt P0ADZ0). Put plainly: FRET or BRET. (In general: BRET reads energy transfer from a luciferase to a nearby fluorophore.)
Test [2] has the same target. The test can be described thus: other fluorescence titration.

Regarding “SRP-FtsY complex formed with mutant SRP19/21E (early complex with GDP, closed complex with GppNHp) (from UniProt P0AGD7;P10121)”, in test [1], the fold weaker binding than wt SRP in the closed complex came to 6 fold and the fold weaker binding than wt SRP in the early complex is greater than 300 fold.
As for “SecYEG translocon, cysteineless, solubilized in 0.02% DDM (from UniProt P0AGA2;P0AG96;P0AG99) (complex)”, the EC50 (in general, the midpoint of the concentration-response curve) in test [2] worked out at 39 nM.

Values taken from article PMC4050729.
